Results reported in article PMC10944109.
One block for each substance: values may come before it.

Tests used:
[1] = target: LZ-Las17(281–633), biotinylated leucine zipper dimeric form of Las17 residues 281–633 (S. cerevisiae); test: supernatant depletion binding assay; biotinylated LZ-Las17(281–633) dimer on magnetic streptavidin beads (16 nM to 2.06 μM dimer for the WT isotherm; 0.6 μM dimer for mutants and CA fusions); 50 nM Arp2/3 complex in solution; 1x PC buffer plus 0.05% Tween-20; 70 min, room temperature; Arp2/3 complex left in the supernatant quantified by anti-Arp3 dot blot
[2] = target: Monomeric Las17(281–633) (S. cerevisiae) (UniProt Q12446)
[3] = target: LZ-Myo5(1146–1220), biotinylated leucine zipper dimeric form of the Myo5 CA segment (S. cerevisiae) (UniProt P03069); test: supernatant depletion binding assay; biotinylated LZ-Myo5–CA dimer on magnetic streptavidin beads (25 nM to 1.6 μM dimer for the WT isotherm; 0.4 μM dimer for mutants); 50 nM Arp2/3 complex in solution; 1x PC buffer plus 0.05% Tween-20; 70 min, room temperature; Arp2/3 complex left in the supernatant quantified by anti-Arp3 dot blot

Substance: S. cerevisiae Arp2/3 complex with ARPC1(F183A, K185D) (from UniProt P47117 1-449; P32381 1-391; P38328 1-384; P53731 1-342)
- reduction in binding compared with the WT complex [1]: 50%

Substance: S. cerevisiae Arp2/3 complex with the CA segment of N-WASP fused to Arp3 (Arp3–CA fusion complex) (from UniProt P32381 1-391; P38328 1-384; P53731 1-342)
- percent of the complex pulled down at 0.6 μM (LZ-Las17(281–633))2 [1]: 73%

Substance: WT S. cerevisiae Arp2/3 complex (ARPC2 with C-terminal tandem 12xHis and TwinStrep tags) (from UniProt P47117 1-449; P32381 1-391; P38328 1-384; P53731 1-342)
- Kd [1]: 160 nM
- Kd [3]: 130 nM

Substance: S. cerevisiae Arp2/3 complex with Arp3(R403D, K404D) (from UniProt P47117 1-449; P32381 1-391; P38328 1-384; P53731 1-342)
- maximum polymerization rate in pyrene actin polymerization assay as percent of WT activity; 20 nM Arp2/3 complex, 3 μM 15% pyrene actin, 1.5 μM monomeric Las17(281–633), PC buffer (% of the WT activity) [2]: 20

Substance: S. cerevisiae Arp2/3 complex with Arp3(W191A, T192A) (from UniProt P47117 1-449; P32381 1-391; P38328 1-384; P53731 1-342)
- maximum polymerization rate in pyrene actin polymerization assay as percent of WT activity; 20 nM Arp2/3 complex, 3 μM 15% pyrene actin, 1.5 μM monomeric Las17(281–633), PC buffer (% of the WT activity) [2]: 17

Continued, values first:

- maximum polymerization rate in pyrene actin polymerization assay as percent of WT activity; 20 nM Arp2/3 complex, 3 μM 15% pyrene actin, Las17(281–633), PC buffer (% of the WT activity) [2]: 56
- reduction in binding compared with WT Arp2/3 complex [1]: 30%
Substance: S. cerevisiae Arp2/3 complex with Arp3(R371D) (from UniProt P47117 1-449; P32381 1-391; P38328 1-384; P53731 1-342)

- reduction in binding compared with the WT complex [1]: 50%
Substance: S. cerevisiae Arp2/3 complex with Arp2(V142A, Y146A) (from UniProt P47117 1-449; P32381 1-391; P38328 1-384; P53731 1-342)

- percent of the complex pulled down at 0.6 μM (LZ-Las17(281–633))2 [1]: 30%
Substance: S. cerevisiae Arp2/3 complex with the CA segment of N-WASP fused to Arp2 (Arp2–CA fusion complex) (from UniProt P47117 1-449; P38328 1-384; P53731 1-342)
